B1: LIBC523844-1 (antibody, V domains shown)
VH: QVQLQESGPGLVKPSQTLSLTCTVSGGSIRRGGDYWSWIRQHPGKGLEWIGHVYYTGSTKYNPSFKDRATISVNTYKNQFSLKLSSVTAADTAVYYCARDYDILTGYSYYYYGMDVWGQGTTVTVSS
VL: DIVMTQSPLSLPVTPGEPASISCRSSQSLLSSSGANYVDWYLQKPGQSPQLLIYQGSNRASGVPDRFSGSGSGTDFTLKISRVEAEDVGVYYCRQARALPRTFGQGTKVEIKR
B2: LIBC528131-1 (antibody, V domains shown)
VH: QVQLQESGPGLVKPSQTLSLTCTVSGGSIRRGGDYWSWIRQHPGKGLEWIGHIYQTGQTAYNPNLEGRATISVNTYKNQFSLKLSSVTAADTAVYYCARDYDILTGYSYYYYGMDVWGQGTTVTVSS
VL: EIVLTQSPATLSLSPGERATLSCRASQSVSSYLGWYQQKPGQAPRLLIYGASSRATGIPDRFSGSGSGTDFTLTISRLEPEDFAVYYCQQYGSSPRTFGQGTKVEIKR
B3: LIBC523748-1 (antibody, V domains shown)
VH: QVQLQESGPGLVKPSQTLSLTCTVSGGSIRRGGDYWSWIRQHPGKGLEWIGHVYYTGSTKYNPSFEGRATISVKTYKNQFSLKLSSVTAADTAVYYCARDYDILTGYSYYYYGMDVWGQGTTVTVSS
VL: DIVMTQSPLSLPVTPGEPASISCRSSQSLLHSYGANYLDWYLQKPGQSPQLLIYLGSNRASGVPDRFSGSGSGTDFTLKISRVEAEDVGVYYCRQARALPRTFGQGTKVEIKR
B4: LIBC523603-1 (antibody, V domains shown)
VH: QVQLQESGPGLVKPSQTLSLTCTVSGGSIRRGGDYWAWIRQHPGKGLEWIGHVYQSGQTAYNPNFENRATISVNTYKNQFSLKLSSVTAADTAVYYCARDYDAVSGYSYYYYGMDVWGQGTTVTVSS
VL: DIVMTQSPLSLPVTPGEPASISCRSSQSLLSSYGNNYVDWYLQKPGQSPQLLIYQGSNRASGVPDRFSGSGSGTDFTLKISRVEAEDVGVYYCRQAVGLPRTFGQGTKVEIKR
B5: LIBC523862-1 (antibody, V domains shown)
VH: QVQLQESGPGLVKPSQTLSLTCTVSGGSIRRGGDYWSWIRQHPGKGLEWIGHIYQTGSTAYNPSLKGRATISVNTYKNQFSLKLSSVTAADTAVYYCARDYDILTGYSYYYYGMDVWGQGTTVTVSS
VL: DIVMTQSPLSLPVTPGEPASISCRSSQSLLHSTGANYVDWYLQKPGQSPQLLIYLGSNRASGVPDRFSGSGSGTDFTLKISRVEAEDVGVYYCRQAIALPRTFGQGTKVEIKR
B6: LIBC523596-1 (antibody, V domains shown)
VH: QVQLQESGPGLVKPSQTLSLTCTVSGGSIRRGGDYWSWIRQHPGKGLEWIGHVYQSGQTAYNPNFEDRATISVNTYKNQFSLKLSSVTAADTAVYYCAREYDVVSGYSYYYYGMDVWGQGTTVTVSS
VL: DIVMTQSPLSLPVTPGEPASISCRSSQSLLTSSGYNYVDWYLQKPGQSPQLLIYQGSNRASGVPDRFSGSGSGTDFTLKISRVEAEDVGVYYCMQAVKIPRTFGQGTKVEIKR
B7: LIBC523969-1 (antibody, V domains shown)
VH: QVQLQESGPGLVKPSQTLSLTCTVSGGSIRRGGDYWSWIRQHPGKGLEWIGHIYQTGQTKYNPNLKGRATISVNTYKNQFSLKLSSVTAADTAVYYCARDYDILTGYSYYYYGMDVWGQGTTVTVSS
VL: DIVMTQSPLSLPVTPGEPASISCRSSQSLLSSTGANYLDWYLQKPGQSPQLLIYQGSNRASGVPDRFSGSGSGTDFTLKISRVEAEDVGVYYCRQAVGLPRTFGQGTKVEIKR
B8: LIBC523813-1 (antibody, V domains shown)
VH: QVQLQESGPGLVKPSQTLSLTCTVSGGSIRRGGDYWSWIRQHPGKGLEWIGHVYYTGQTAYNPKFKDRATISVKTYKNQFSLKLSSVTAADTAVYYCARDYDILTGYSYYYYGMDVWGQGTTVTVSS
VL: DIVMTQSPLSLPVTPGEPASISCRSSQSLLSSSGANYVDWYLQKPGQSPQLLIYLGSNRASGVPDRFSGSGSGTDFTLKISRVEAEDVGVYYCMQARGIPRTFGQGTKVEIKR
B9: LIBC523760-1 (antibody, V domains shown)
VH: QVQLQESGPGLVKPSQTLSLTCTVSGGSIRRGGDYWSWIRQHPGKGLEWIGHVYQTGSTKYNPKFKGRATISVNTYKNQFSLKLSSVTAADTAVYYCARDYDILTGYSYYYYGMDVWGQGTTVTVSS
VL: DIVMTQSPLSLPVTPGEPASISCRSSQSLLTSSGANYVDWYLQKPGQSPQLLIYLGSNRASGVPDRFSGSGSGTDFTLKISRVEAEDVGVYYCRQAVGTPRTFGQGTKVEIKR
B10: LIBC523670-1 (antibody, V domains shown)
VH: QVQLQESGPGLVKPSQTLSLTCTVSGGSIRRGGDYWAWIRQHPGKGLEWIGHVYQTGQTAYNPNLESRATISVNTYKNQFSLKLSSVTAADTAVYYCARNYDVLSGYSYYYYGMDVWGQGTTVTVSS
VL: DIVMTQSPLSLPVTPGEPASISCRSSQSLLTSYGANYLDWYLQKPGQSPQLLIYQGSNRASGVPDRFSGSGSGTDFTLKISRVEAEDVGVYYCMQALQIPRTFGQGTKVEIKR
B11: LIBC523868-1 (antibody, V domains shown)
VH: QVQLQESGPGLVKPSQTLSLTCTVSGGSIRRGGDYWSWIRQHPGKGLEWIGHVYYEGSTAYNPSFEDRATISVNTYKNQFSLKLSSVTAADTAVYYCARDYDILTGYSYYYYGMDVWGQGTTVTVSS
VL: DIVMTQSPLSLPVTPGEPASISCRSSQSLLTSYGINYVDWYLQKPGQSPQLLIYLGSNRASGVPDRFSGSGSGTDFTLKISRVEAEDVGVYYCMQARQIPRTFGQGTKVEIKR
B12: LIBC523857-1 (antibody, V domains shown)
VH: QVQLQESGPGLVKPSQTLSLTCTVSGGSIRRGGDYWSWIRQHPGKGLEWIGHIYQTGQTAYNPRLEGRATISVNTYKNQFSLKLSSVTAADTAVYYCARDYDILTGYSYYYYGMDVWGQGTTVTVSS
VL: DIVMTQSPLSLPVTPGEPASISCRSSQSLLSSTGANYLDWYLQKPGQSPQLLIYLGSNRASGVPDRFSGSGSGTDFTLKISRVEAEDVGVYYCRQAVELPRTFGQGTKVEIKR
B13: LIBC527869-1 (antibody, V domains shown)
VH: QVQLQESGPGLVKPSQTLSLTCTVSGGNIRRGGDYWAWIRQHPGKGLEWIGHIYHTGKTNYNPSFKGRATISVKTYKNQFSLKLSSVTAADTAVYYCARNYDTLSGNSYYYYGMDVWGQGTTVTVSS
VL: DIQLTQSPSTLSASVGDRVTITCRASQSISNYLNWYQQKPGKAPKLLIYAASSLHSGVPSRFSGSGSGTDFTLTISSLQPEDFASYYCQQYQSYPLTFGQGTKVEIKR
B14: LIBC527879-1 (antibody, V domains shown)
VH: QVQLQESGPGLVKPSQTLSLTCTVSGGSIRRGGDYWGWIRQHPGKGLEWIGHIYQSGSTNYNPKLKSRATISVDTYKNQFSLKLSSVTAADTAVYYCARDYDIFTGYSYYYYGMDVWGQGTTVTVSS
VL: DIQLTQSPSSLSASVGDRVTITCRASQSIISYLNWYQQKPGKAPKLLIYAASSLRSGVPSRFSGSGSGTDFTLTISSLQPEDFATYYCQQYSNYPLTFGGGTRVEIKR
B15: LIBC527984-1 (antibody, V domains shown)
VH: QVQLQESGPGLVKPSQTLSLTCTVSGGSIRRGGDYWSWIRQHPGKGLEWIGHIYQTGKTNYNPNFKSRATISVNTYKNQFSLKLSSVTAADTAVYYCARDYDILTGYSYYYYGMDVWGQGTTVTVSS
VL: DIQMTQSPSTLSASVGDRVTITCRASQSISNYLNWYQQKPGKAPKLLIYAASSLHSGVPSRFSGSGSGTDFTLTISSLQPEDFASYYCQQYQSYPLTFGQGTKVEIKR

Target: human cannabinoid receptor 1 (huCB1), full length, expressed on cells (human, UniProt P21554 1-472)
Sequence (P21554 whole entry): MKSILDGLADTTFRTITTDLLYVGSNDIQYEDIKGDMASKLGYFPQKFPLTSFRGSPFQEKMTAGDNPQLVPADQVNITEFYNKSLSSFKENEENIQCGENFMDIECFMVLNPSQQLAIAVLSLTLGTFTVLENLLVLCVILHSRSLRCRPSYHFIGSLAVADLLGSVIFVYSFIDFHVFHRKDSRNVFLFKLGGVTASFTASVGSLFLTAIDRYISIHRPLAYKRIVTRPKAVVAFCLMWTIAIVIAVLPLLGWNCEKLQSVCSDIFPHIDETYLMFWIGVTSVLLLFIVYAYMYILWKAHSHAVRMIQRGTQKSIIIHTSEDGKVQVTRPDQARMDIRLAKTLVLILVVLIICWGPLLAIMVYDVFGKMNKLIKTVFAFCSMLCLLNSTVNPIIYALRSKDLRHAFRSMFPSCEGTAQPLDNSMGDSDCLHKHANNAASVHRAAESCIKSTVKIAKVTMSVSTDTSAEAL
Experiment: cell-based or functional assay

Row | Binder | Mean IC50 (nM), cAMP antagonist assay [nM] | Mean IC50, -fold vs Rimo [fold vs Rimonabant] | n = 1 IC50 (nM), cAMP antagonist assay [nM] | n = 1 IC50, -fold vs Rimo [fold vs Rimonabant] | n = 2 IC50 (nM), cAMP antagonist assay [nM] | n = 2 IC50, -fold vs Rimo [fold vs Rimonabant]
1 | B1 | 3.83 | 1.28 | 6.2 | 1.47 | 1.46 | 0.82
2 | B2 | 4.23 | 1.41 | 6.63 | 1.57 | 1.83 | 1.02
3 | B3 | 7 | 2.33 | 9.57 | 2.27 | 4.43 | 2.48
4 | B4 | 4.72 | 1.57 | 7.29 | 1.73 | 2.16 | 1.2
5 | B5 | 7.31 | 2.44 | 11.2 | 2.66 | 3.42 | 1.91
6 | B6 | 8.99 |  |  |  | 4 | 
7 | B7 | 3.86 | 1.29 | 6.45 | 1.53 | 1.26 | 0.7
8 | B8 | 5.95 | 1.98 | 8.96 | 2.13 | 2.94 | 1.64
9 | B9 | 4.28 | 1.43 | 6.12 | 1.45 | 2.44 | 1.36
10 | B10 | 6.12 | 2.04 | 8.72 | 2.07 | 3.52 | 1.97
11 | B11 | 7.59 | 2.53 | 11.9 | 2.81 | 3.32 | 1.86
12 | B12 | 7.94 | 2.65 | 13.4 | 3.18 | 2.48 | 1.39
13 | B13 | 47 | 15.7 | 57.8 | 13.7 | 36.2 | 20.2
14 | B14 | 3.95 | 1.32 | 6.12 | 1.45 | 1.78 | 0.99
15 | B15 | 4.25 | 1.42 | 7.24 | 1.72 | 1.27 | 0.71

Source: US20250277029A1 (Amgen, published 2025)
